Test results as given in patent publication US20200282012A1 (published 2020).

What was measured:
[1] = molecular target: T1, human complement component C3 (human, UniProt P01024 23-1663); assay: cell-based or functional assay
[2] = molecular target: T1, human complement component C3; assay: cell-based or functional assay; remark: listed apart in the source

Row | IC50 as a function of CA28 concentration, classical complement inhibition assay (C3b deposition ELISA, human plasma) [1] | % Parent, Q1 (Type III cells with C3d deposition), modified Ham's assay, CA28-2GS-BF 50 ug/ml [2] | % Parent, Q2 (Type I and II cells with C3d deposition), modified Ham's assay, CA28-2GS-BF 50 ug/ml [2] | % Parent, Q3 (Type III cells without significant C3d deposition), modified Ham's assay, CA28-2GS-BF 50 ug/ml [2] | % Parent, Q4 (Type I and II cells without significant C3d deposition), modified Ham's assay, CA28-2GS-BF 50 ug/ml [2] | Binder
1 | 1930 nM |  |  |  |  | ICVWQDWGAHRCTK (N-terminal acetyl; 1-methyl-tryptophan at position 4; disulfide Cys2-Cys12; AEEAc spacer between Thr13 and Lys; Lys side chain coupled to one arm of an eight-arm 40 kD PEG (SUNBRIGHT HGEO-400GS); C-terminal amide) [(CA28-AEEAc)8-PEG40k]
2 |  | 0.01% | 0.01% | 61.5% | 38.5% | ICVWQDWGAHRCTK (N-terminal acetyl; 1-methyl-tryptophan at position 4; disulfide Cys2-Cys12; AEEAc spacer between Thr13 and Lys; Lys side chain coupled to one end of a bifunctional linear 40 kD PEG of the GS type (glutaryl; amide and ester linkage); C-terminal amide) [CA28-2GS-BF]
